According to patent US20210395761:

Legend:
[1] = tested on: T1, SF370.1 serine recombinase (SF370.1-HA-NLS) (Streptococcus pyogenes phage 370.1); assay: cell_activity; conditions: lettuce; 1 colony without recombinase
T1 sequence: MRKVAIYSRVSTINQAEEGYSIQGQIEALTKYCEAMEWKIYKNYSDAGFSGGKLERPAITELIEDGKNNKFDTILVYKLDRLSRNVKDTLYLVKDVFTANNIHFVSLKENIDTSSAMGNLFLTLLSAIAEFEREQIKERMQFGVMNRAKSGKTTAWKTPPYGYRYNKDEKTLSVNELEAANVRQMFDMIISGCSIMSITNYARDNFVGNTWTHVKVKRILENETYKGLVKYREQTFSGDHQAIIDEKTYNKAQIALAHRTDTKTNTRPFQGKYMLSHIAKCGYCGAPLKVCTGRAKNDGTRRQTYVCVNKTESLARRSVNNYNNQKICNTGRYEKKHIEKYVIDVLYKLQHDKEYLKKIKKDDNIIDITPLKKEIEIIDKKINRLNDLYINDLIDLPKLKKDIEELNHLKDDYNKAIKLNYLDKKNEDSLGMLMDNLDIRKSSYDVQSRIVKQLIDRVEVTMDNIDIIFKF

[2] = target: SPβc2 serine recombinase (SPβc2-HA-NLS) (Bacillus subtilis phage SPβc2) (UniProt O32006); assay: cell_activity; conditions: lettuce initial screen; attP gave 27; background level
SPβc2 serine recombinase (SPβc2-HA-NLS) (Bacillus subtilis phage SPβc2), sequence (O32006 whole entry): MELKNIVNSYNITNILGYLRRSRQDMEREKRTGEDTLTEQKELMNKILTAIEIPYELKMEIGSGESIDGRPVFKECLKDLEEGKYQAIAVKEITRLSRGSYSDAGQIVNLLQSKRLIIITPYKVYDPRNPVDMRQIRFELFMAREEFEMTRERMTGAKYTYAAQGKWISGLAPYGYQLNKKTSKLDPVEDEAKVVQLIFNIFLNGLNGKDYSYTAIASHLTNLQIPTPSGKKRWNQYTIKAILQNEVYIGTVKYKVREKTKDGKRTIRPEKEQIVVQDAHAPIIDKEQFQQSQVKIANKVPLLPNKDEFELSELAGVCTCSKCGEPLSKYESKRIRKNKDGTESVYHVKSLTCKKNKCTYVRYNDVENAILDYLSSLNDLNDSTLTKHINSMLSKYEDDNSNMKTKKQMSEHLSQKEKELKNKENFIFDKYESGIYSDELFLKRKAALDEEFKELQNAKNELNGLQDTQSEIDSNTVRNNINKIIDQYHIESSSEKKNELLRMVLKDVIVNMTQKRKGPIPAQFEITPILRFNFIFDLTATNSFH

Substance | activity (GFP+ Kan resistant colonies) [1] | activity [2]
ATTTTTGTATCCAGTTCAATGGATATTTGATATAATCGTCTTAAAAAGGAGGTCGTGAAATGGATAAAAAAATACAGCGTTTTTCATGTACAACTATACTAGTTGTAGTGCCTAAATAATGCTTTTAAAACTTAAAAATAATATCGATGTTATCCATAGTAACCTCGACTCTATCTATCAATTGCTTAACTATCCTAGAT (double strand) [SF370 attP] | 4 | –
siteless reporter plasmid | – | 1 GFP+ colony
